This is an account of results in patent US20060110769A1, “Regulation of novel human prolyl 4-hydroxylases” (Bayer Aktiengesellschaft, priority 2001, published 2006).

For this experiment, the target named is mouse hypoxia inducible factor-1 alpha (mouse) (UniProt Q61221). The experiment is described as follows: cell-based or functional assay.
Chain of mouse hypoxia inducible factor-1 alpha (mouse) (Q61221 whole entry): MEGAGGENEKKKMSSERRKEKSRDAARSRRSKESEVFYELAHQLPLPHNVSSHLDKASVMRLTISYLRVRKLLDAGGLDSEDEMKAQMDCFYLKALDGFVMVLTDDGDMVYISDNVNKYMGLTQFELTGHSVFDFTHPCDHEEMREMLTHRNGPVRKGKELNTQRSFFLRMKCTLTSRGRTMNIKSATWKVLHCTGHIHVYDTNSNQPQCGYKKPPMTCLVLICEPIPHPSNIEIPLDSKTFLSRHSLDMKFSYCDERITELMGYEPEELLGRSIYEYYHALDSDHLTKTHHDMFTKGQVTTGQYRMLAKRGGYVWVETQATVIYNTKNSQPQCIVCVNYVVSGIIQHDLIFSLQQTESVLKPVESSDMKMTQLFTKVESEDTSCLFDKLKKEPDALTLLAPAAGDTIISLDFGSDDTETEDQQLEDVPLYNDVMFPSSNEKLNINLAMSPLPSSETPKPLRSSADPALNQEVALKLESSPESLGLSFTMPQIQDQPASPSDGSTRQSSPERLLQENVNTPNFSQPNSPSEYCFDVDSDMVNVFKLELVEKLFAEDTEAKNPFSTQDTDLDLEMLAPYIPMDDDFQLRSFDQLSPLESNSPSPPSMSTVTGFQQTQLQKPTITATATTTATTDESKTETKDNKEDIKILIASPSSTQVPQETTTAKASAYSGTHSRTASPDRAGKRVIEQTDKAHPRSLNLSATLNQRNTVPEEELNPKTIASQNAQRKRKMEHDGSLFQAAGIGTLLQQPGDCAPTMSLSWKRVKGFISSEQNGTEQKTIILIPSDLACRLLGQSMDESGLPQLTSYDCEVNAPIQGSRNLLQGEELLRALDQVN

“EGLN3, human HIF-prolyl-hydroxylase (from UniProt Q9H6Z9 1-239)” showed a reduction of the transactivation activity of cotransfected HIF-1 alpha on the hypoxia responsive luciferase reporter (HEK/293 cells, equal amounts of each plasmid) of 90%.
